The record followed here is paper PMC3536784, “Structural Characterization of Pandoraea pnomenusa B-356 Biphenyl Dioxygenase Reveals Features of Potent Polychlorinated Biphenyl-Degrading Enzymes” (PLoS ONE, 2013).

In the data set the test system is c1ccc(-c2ccccc2)cc1. As to the kind of experiment: purified protein. The following applies: apparent, air-saturated 50 mM MES pH 6.0, NADH 123 µM, BphG B356 and BphF LB400 as electron transfer partners, Fe(II) added, well coupled.

Excerpt: O2 consumption, Clark-type oxygen electrode on BPDOB356 (biphenyl dioxygenase, oxygenase component BphAE)

Broadly, the kcat is the maximal rate divided by the concentration of active sites. A word on the kcat/Km: it is the turnover number divided by the Michaelis constant. Take “BPDOB356 (biphenyl dioxygenase, oxygenase component BphAE) (Comamonas testosteroni; M231T)”: the Km was 11.1 (3.1) µM, the kcat was 2.9 s⁻¹ and the kcat/Km was determined as 300000 M⁻¹ s⁻¹.
Take “BPDOB356 (biphenyl dioxygenase, oxygenase component BphAE) (Comamonas testosteroni; M231A)”: the Km was 9.4 (1.9) µM, the kcat turned out to be 2.1 s⁻¹ and the kcat/Km was 200000 M⁻¹ s⁻¹.
